Test results as given in patent US20190062443A1 (GALAXY BIOTECH, published 2019).

Target: DR5-KF fusion protein (human, UniProt O14763 54-183; P01834 1-107, limits assumed)
Experiment: sandwich ELISA for simultaneous binding: anti-DR4 mAb coat, DR4-hFc 0.5 µg/ml, test mAb, DR5-KF 0.5 µg/ml, HRP-anti-Flag M2
Description: Each step of each ELISA assay described in this patent application was performed by room temperature incubation with the appropriate reagent for 1 hour, except the initial plate coating step was done overnight at 4° C. followed by blocking with 2% BSA for 1 hr. Between each step, plates were washed 3 times in PBS containing 0.05% Tween 20. Data points were generally in duplicate or triplicate; there was generally little variability between replicate data points.
Bound DR5-KF was detected with HRP-anti-Flag M2 (Sigma) and substrate.

Sequence of DR5-KF fusion protein (O14763 other isoform, or with tags, fused parts or gaps limits assumed): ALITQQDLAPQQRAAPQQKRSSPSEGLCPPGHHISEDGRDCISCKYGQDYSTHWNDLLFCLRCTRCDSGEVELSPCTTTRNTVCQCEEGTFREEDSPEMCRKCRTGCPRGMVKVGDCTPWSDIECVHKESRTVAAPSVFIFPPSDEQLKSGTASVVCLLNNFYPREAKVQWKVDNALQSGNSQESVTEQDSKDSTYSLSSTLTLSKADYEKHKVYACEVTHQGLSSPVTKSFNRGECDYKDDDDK

binding result: binds
B1: B-4H6/3H3-hFc** (bispecific antibody, human IgG1, kappa)
heavy: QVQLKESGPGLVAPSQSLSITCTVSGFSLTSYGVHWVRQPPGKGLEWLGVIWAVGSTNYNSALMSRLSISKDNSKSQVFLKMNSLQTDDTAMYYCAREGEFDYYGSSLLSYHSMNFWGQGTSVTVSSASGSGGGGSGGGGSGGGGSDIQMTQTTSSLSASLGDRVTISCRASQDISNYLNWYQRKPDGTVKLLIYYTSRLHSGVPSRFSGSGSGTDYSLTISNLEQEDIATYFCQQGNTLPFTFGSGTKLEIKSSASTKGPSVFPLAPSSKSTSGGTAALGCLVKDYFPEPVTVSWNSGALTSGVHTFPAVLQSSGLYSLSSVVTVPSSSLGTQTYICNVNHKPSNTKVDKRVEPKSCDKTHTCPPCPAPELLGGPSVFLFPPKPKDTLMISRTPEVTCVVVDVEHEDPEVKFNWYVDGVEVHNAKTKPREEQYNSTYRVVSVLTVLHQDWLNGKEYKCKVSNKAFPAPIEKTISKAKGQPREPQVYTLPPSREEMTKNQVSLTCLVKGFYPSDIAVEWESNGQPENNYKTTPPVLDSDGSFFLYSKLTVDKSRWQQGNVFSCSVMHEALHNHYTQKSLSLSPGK
light: EVQLQQSGPELVKPGASVKMSCKASGYTFTSYVMHWVKQKPGQGLEWIGYIIPYNDGTKYNEKFKGKATLTSDKSSSTAYMELSRLTSEDSAVYYCARGGINYDYLYYFDYWGQGTTLTVSSASGSGGGGSGGGGSGGGGSDVVMTQIPLSLPVSLGDQASISCRSSQSLVHSNGNTYLHWYLQKPGQSPKLLIYKVSNRFSGVPDRFSGSGSGTDFTLKISRVEAEDLGVYFCSQSTHVPHTFGGGTKLEIKRTVAAPSVFIFPPSDEQLKSGTASVVCLLNNFYPREAKVQWKVDNALQSGNSQESVTEQDSKDSTYSLSSTLTLSKADYEKHKVYACEVTHQGLSSPVTKSFNRGEC
notes: Bs(scFv)4-IgG format; also called bispecific B-4H6/3H3-hFc** mAb
